We go through nine molecules from publication PMC9496334, “In Silico Maturation of a Nanomolar Antibody against the Human CXCR2” (Biomolecules, 2022).

The target in test [1] is T1, Biotin-labeled human CXCR2 N-terminal extracellular peptide (pepN48) (Homo sapiens, UniProt P25025, biotin label (position not given)).
T1 construct: CXC chemokine receptor 2 (CXCR2, interleukin 8 receptor beta), human, the first 48 residues of the protein; Held on the streptavidin chip by its biotin; also called N-terminal peptide; peptide of extracellular N-terminal domain of human CXCR2
T1 chain: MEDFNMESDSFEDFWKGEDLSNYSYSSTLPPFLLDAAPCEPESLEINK
Nature of the test: SPR; biotin-labeled pepN48 immobilised on a streptavidin Series S Sensor Chip SA; Biacore T200; IgG1 antibodies injected as analytes in HBS-EP+ buffer pH 7.4; kinetics fitted globally. The note with it: both partners purified.

For test [2], the target named is T1, Biotin-labeled human CXCR2 N-terminal …. The description is as above. The conditions noted are these: both partners purified.

B1: abN48 (antibody, V domains shown)
VH: QVQLVQSGAEVKKPGSSVKVSCKASGGTLSSYAISWVRQAPGQGPEWMGWINPNSGGTNYAQKFQGRVTMTRDTSISTAYMELSRLRPDDTAVYYCASGYCSSTSCYDYWGQGTLVTVSS
VL: QAVLTQPSSLSASPGASVSLTCTLRSGINVGAYRIYWYQQKPGSPPQFLLRYKSDSDKQQGSGVPSRFSGSRDASANAGILLISGLRSEDEADYYCAIWHSSAWVFGGGTQLTVL
notes: VH of abN48; constant region of the human IgG1 heavy chain, from the pFuse heavy-chain vector; VL of abN48, the same for all studied antibodies; light-chain constant region of the pFuse light-chain vector pfuse2ss-hcll2; Full-length IgG1 in the experiments; the crystal structure 6KVF holds the Fab; also called abN48 antibody; source: 293F cells, co-transfected, purified from the medium (HiTrap …)
The molecule B1 gave a Kd in test [1] of 1.3 nM.

B2: abN48-10 (antibody, V domains shown)
VH: QVQLVQSGAEVKKPGSSVKVSCKASGGTLSSYAISWVRQAPGQGPEWMGWINPNSGGTNYAQKFQGRVTMTRDTSISTAYMELSRLRPDDTAVYYCASGYCSRFNCKDYWGQGTLVTVSS
VL: QAVLTQPSSLSASPGASVSLTCTLRSGINVGAYRIYWYQQKPGSPPQFLLRYKSDSDKQQGSGVPSRFSGSRDASANAGILLISGLRSEDEADYYCAIWHSSAWVFGGGTQLTVL
notes: parent VH in PDB 6KVF; constant region of the human IgG1 heavy chain, from the pFuse heavy-chain vector; as the VL of the light chain of m1; light-chain constant region of the pFuse light-chain vector pfuse2ss-hcll2; Full-length IgG1; source: 293F cells, co-transfected, purified from the medium (HiTrap Protein A)
Molecule B2 gave a Kd in test [1] of 0.27 nM.

B3: abN48-3 (antibody, V domains shown)
VH: QVQLVQSGAEVKKPGSSVKVSCKASGGTLSSYAISWVRQAPGQGPEWMGWINPNSGGTNYAQKFQGRVTMTRDTSISTAYMELSRLRPDDTAVYYCASGYCSFAICFDSWGQGTLVTVSS
VL: QAVLTQPSSLSASPGASVSLTCTLRSGINVGAYRIYWYQQKPGSPPQFLLRYKSDSDKQQGSGVPSRFSGSRDASANAGILLISGLRSEDEADYYCAIWHSSAWVFGGGTQLTVL
notes: as for B2
As for B3, the Kd in test [1] was found to be 2 nM.

B4: abN48-1 (antibody, V domains shown)
VH: QVQLVQSGAEVKKPGSSVKVSCKASGGTLSSYAISWVRQAPGQGPEWMGWINPNSGGTNYAQKFQGRVTMTRDTSISTAYMELSRLRPDDTAVYYCASGFCTRTICFVYWGQGTLVTVSS
VL: QAVLTQPSSLSASPGASVSLTCTLRSGINVGAYRIYWYQQKPGSPPQFLLRYKSDSDKQQGSGVPSRFSGSRDASANAGILLISGLRSEDEADYYCAIWHSSAWVFGGGTQLTVL
notes: as for B2
With B4, the Kd in test [1] came out at 0.26 nM.

B5: abN48-2 (antibody, V domains shown)
VH: QVQLVQSGAEVKKPGSSVKVSCKASGGTLSSYAISWVRQAPGQGPEWMGWINPNSGGTNYAQKFQGRVTMTRDTSISTAYMELSRLRPDDTAVYYCASGYCSRTRCYDYWGQGTLVTVSS
VL: QAVLTQPSSLSASPGASVSLTCTLRSGINVGAYRIYWYQQKPGSPPQFLLRYKSDSDKQQGSGVPSRFSGSRDASANAGILLISGLRSEDEADYYCAIWHSSAWVFGGGTQLTVL
notes: VH of abN48-2: as the VH of m1 with two serines of CDR3 changed to arginines; parent VH in PDB 6KVF; constant region of the human IgG1 heavy chain, from the pFuse heavy-chain vector; as the VL of the light chain of m1; light-chain constant region of the pFuse light-chain vector pfuse2ss-hcll2; Full-length IgG1; source: 293F cells, co-transfected, purified from the medium (HiTrap Protein A)
In test [2], B5 returned a Kd of 0.11 nM, a koff of 0.00027 s⁻¹ and a kon of 2.5e+06 M⁻¹ s⁻¹.

B6: abN48-29 (antibody, V domains shown)
VH: QVQLVQSGAEVKKPGSSVKVSCKASGGTLSSYAISWVRQAPGQGPEWMGWINPNSGGTNYAQKFQGRVTMTRDTSISTAYMELSRLRPDDTAVYYCASGYCGRARCTSFWGQGTLVTVSS
VL: QAVLTQPSSLSASPGASVSLTCTLRSGINVGAYRIYWYQQKPGSPPQFLLRYKSDSDKQQGSGVPSRFSGSRDASANAGILLISGLRSEDEADYYCAIWHSSAWVFGGGTQLTVL
notes: as for B2
B6 had a Kd in test [1] of 0.13 nM.

B7: abN48-28 (antibody, V domains shown)
VH: QVQLVQSGAEVKKPGSSVKVSCKASGGTLSSYAISWVRQAPGQGPEWMGWINPNSGGTNYAQKFQGRVTMTRDTSISTAYMELSRLRPDDTAVYYCASGYCSPSGCYVYWGQGTLVTVSS
VL: QAVLTQPSSLSASPGASVSLTCTLRSGINVGAYRIYWYQQKPGSPPQFLLRYKSDSDKQQGSGVPSRFSGSRDASANAGILLISGLRSEDEADYYCAIWHSSAWVFGGGTQLTVL
notes: as for B2
In the case of B7, the affinity in test [1], expressed as Kd, was 0.65 nM.

B8: abN48-38 (antibody, V domains shown)
VH: QVQLVQSGAEVKKPGSSVKVSCKASGGTLSSYAISWVRQAPGQGPEWMGWINPNSGGTNYAQKFQGRVTMTRDTSISTAYMELSRLRPDDTAVYYCASGYCSRSRCYDYWGQGTLVTVSS
VL: QAVLTQPSSLSASPGASVSLTCTLRSGINVGAYRIYWYQQKPGSPPQFLLRYKSDSDKQQGSGVPSRFSGSRDASANAGILLISGLRSEDEADYYCAIWHSSAWVFGGGTQLTVL
notes: as for B2
With B8, binding in test [1] was characterised by a dissociation constant (Kd) of 0.23 nM.

B9: abN48-8 (antibody, V domains shown)
VH: QVQLVQSGAEVKKPGSSVKVSCKASGGTLSSYAISWVRQAPGQGPEWMGWINPNSGGTNYAQKFQGRVTMTRDTSISTAYMELSRLRPDDTAVYYCASGYCNRTRCYDHWGQGTLVTVSS
VL: QAVLTQPSSLSASPGASVSLTCTLRSGINVGAYRIYWYQQKPGSPPQFLLRYKSDSDKQQGSGVPSRFSGSRDASANAGILLISGLRSEDEADYYCAIWHSSAWVFGGGTQLTVL
notes: as for B2
B9: the Kd in test [1] turned out to be 0.83 nM.
